According to US20140087995A1 (published 2014):
Numbered stars: 1 amine (or outer) side, 2 acyl side, 3 side chain; on linkers, the order of the positions; unused ones are H or OH. Bridge positions count the residues as written; N and C are the ends. Side chains are listed from the residue outwards. Ends that are not written are not given here. * marks the point of attachment. C20 diacid = O=C(O)CCCCCCCCCCCCCCCCCCC(=O)*; γGlu = O=C(O)[C@H](CCC(=O)[*:2])N[*:1]

T1: human calcitonin receptor (human, UniProt P30988 25-474)
T1 sequence (looked up): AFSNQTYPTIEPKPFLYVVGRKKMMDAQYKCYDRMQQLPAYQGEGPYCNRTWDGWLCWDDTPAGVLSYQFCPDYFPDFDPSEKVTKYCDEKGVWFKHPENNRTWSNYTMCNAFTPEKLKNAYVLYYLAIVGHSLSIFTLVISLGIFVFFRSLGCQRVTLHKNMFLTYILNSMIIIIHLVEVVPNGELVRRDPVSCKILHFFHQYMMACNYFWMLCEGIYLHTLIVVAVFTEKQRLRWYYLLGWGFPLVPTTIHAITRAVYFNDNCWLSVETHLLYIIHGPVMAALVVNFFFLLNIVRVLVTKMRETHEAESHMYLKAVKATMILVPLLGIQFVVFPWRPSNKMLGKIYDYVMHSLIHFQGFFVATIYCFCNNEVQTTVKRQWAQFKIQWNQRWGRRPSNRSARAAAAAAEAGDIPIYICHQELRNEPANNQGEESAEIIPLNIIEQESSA

B1: N^ε1-[(4S)-4-carboxy-4-(19-carboxynonadecanoylamino)butanoyl]-[Arg14,Arg17,Pro21,Pro27,Pro34]-h-amylin (peptide)
peptide: K([γGlu-C20 diacid])CNTATCATQRLARFLRHSSPNFGAIPSSTNVGPNTY-NH2
modifications: disulfide 2-7; N-terminus assumed
SMILES: CC[C@H](C)[C@H](NC(=O)[C@H](C)NC(=O)CNC(=O)[C@H](Cc1ccccc1)NC(=O)[C@H](CC(N)=O)NC(=O)[C@@H]1CCCN1C(=O)[C@H](CO)NC(=O)[C@H](CO)NC(=O)[C@H](Cc1c[nH]cn1)NC(=O)[C@H](CCCNC(=N)N)NC(=O)[C@H](CC(C)C)NC(=O)[C@H](Cc1ccccc1)NC(=O)[C@H](CCCNC(=N)N)NC(=O)[C@H](C)NC(=O)[C@H](CC(C)C)NC(=O)[C@H](CCCNC(=N)N)NC(=O)[C@H](CCC(N)=O)NC(=O)[C@@H](NC(=O)[C@H](C)NC(=O)[C@@H]1CSSC[C@H](NC(=O)[C@@H](N)CCCCNC(=O)CC[C@H](NC(=O)CCCCCCCCCCCCCCCCCCC(=O)O)C(=O)O)C(=O)N[C@@H](CC(N)=O)C(=O)N[C@@H]([C@@H](C)O)C(=O)N[C@@H](C)C(=O)N[C@@H]([C@@H](C)O)C(=O)N1)[C@@H](C)O)C(=O)N1CCC[C@H]1C(=O)N[C@@H](CO)C(=O)N[C@@H](CO)C(=O)N[C@H](C(=O)N[C@@H](CC(N)=O)C(=O)N[C@H](C(=O)NCC(=O)N1CCC[C@H]1C(=O)N[C@@H](CC(N)=O)C(=O)N[C@H](C(=O)N[C@@H](Cc1ccc(O)cc1)C(N)=O)[C@@H](C)O)C(C)C)[C@@H](C)O
notes: also called compound 65
B2: N^ε1-[(4S)-4-carboxy-4-(19-carboxynonadecanoylamino)butanoyl]-[Arg14,Arg17,Pro21,Pro27]-h-amylin (peptide)
peptide: K([γGlu-C20 diacid])CNTATCATQRLARFLRHSSPNFGAIPSSTNVGSNTY-NH2
modifications: disulfide 2-7; N-terminus assumed
SMILES: CC[C@H](C)[C@H](NC(=O)[C@H](C)NC(=O)CNC(=O)[C@H](Cc1ccccc1)NC(=O)[C@H](CC(N)=O)NC(=O)[C@@H]1CCCN1C(=O)[C@H](CO)NC(=O)[C@H](CO)NC(=O)[C@H](Cc1c[nH]cn1)NC(=O)[C@H](CCCNC(=N)N)NC(=O)[C@H](CC(C)C)NC(=O)[C@H](Cc1ccccc1)NC(=O)[C@H](CCCNC(=N)N)NC(=O)[C@H](C)NC(=O)[C@H](CC(C)C)NC(=O)[C@H](CCCNC(=N)N)NC(=O)[C@H](CCC(N)=O)NC(=O)[C@@H](NC(=O)[C@H](C)NC(=O)[C@@H]1CSSC[C@H](NC(=O)[C@@H](N)CCCCNC(=O)CC[C@H](NC(=O)CCCCCCCCCCCCCCCCCCC(=O)O)C(=O)O)C(=O)N[C@@H](CC(N)=O)C(=O)N[C@@H]([C@@H](C)O)C(=O)N[C@@H](C)C(=O)N[C@@H]([C@@H](C)O)C(=O)N1)[C@@H](C)O)C(=O)N1CCC[C@H]1C(=O)N[C@@H](CO)C(=O)N[C@@H](CO)C(=O)N[C@H](C(=O)N[C@@H](CC(N)=O)C(=O)N[C@H](C(=O)NCC(=O)N[C@@H](CO)C(=O)N[C@@H](CC(N)=O)C(=O)N[C@H](C(=O)N[C@@H](Cc1ccc(O)cc1)C(N)=O)[C@@H](C)O)C(C)C)[C@@H](C)O
notes: also called compound 83
B3: N^ε1-[(4S)-4-carboxy-4-(19-carboxynonadecanoylamino)butanoyl]-[Arg17,Pro21,Pro27,Arg34]-h-amylin (peptide)
peptide: K([γGlu-C20 diacid])CNTATCATQRLANFLRHSSPNFGAIPSSTNVGRNTY-NH2
modifications: disulfide 2-7; N-terminus assumed
SMILES: CC[C@H](C)[C@H](NC(=O)[C@H](C)NC(=O)CNC(=O)[C@H](Cc1ccccc1)NC(=O)[C@H](CC(N)=O)NC(=O)[C@@H]1CCCN1C(=O)[C@H](CO)NC(=O)[C@H](CO)NC(=O)[C@H](Cc1c[nH]cn1)NC(=O)[C@H](CCCNC(=N)N)NC(=O)[C@H](CC(C)C)NC(=O)[C@H](Cc1ccccc1)NC(=O)[C@H](CC(N)=O)NC(=O)[C@H](C)NC(=O)[C@H](CC(C)C)NC(=O)[C@H](CCCNC(=N)N)NC(=O)[C@H](CCC(N)=O)NC(=O)[C@@H](NC(=O)[C@H](C)NC(=O)[C@@H]1CSSC[C@H](NC(=O)[C@@H](N)CCCCNC(=O)CC[C@H](NC(=O)CCCCCCCCCCCCCCCCCCC(=O)O)C(=O)O)C(=O)N[C@@H](CC(N)=O)C(=O)N[C@@H]([C@@H](C)O)C(=O)N[C@@H](C)C(=O)N[C@@H]([C@@H](C)O)C(=O)N1)[C@@H](C)O)C(=O)N1CCC[C@H]1C(=O)N[C@@H](CO)C(=O)N[C@@H](CO)C(=O)N[C@H](C(=O)N[C@@H](CC(N)=O)C(=O)N[C@H](C(=O)NCC(=O)N[C@@H](CCCNC(=N)N)C(=O)N[C@@H](CC(N)=O)C(=O)N[C@H](C(=O)N[C@@H](Cc1ccc(O)cc1)C(N)=O)[C@@H](C)O)C(C)C)[C@@H](C)O
notes: also called compound 79
B4: N^ε1-[(4S)-4-carboxy-4-(19-carboxynonadecanoylamino)butanoyl]-[Arg17,Pro21,Pro27,His34]-h-amylin (peptide)
peptide: K([γGlu-C20 diacid])CNTATCATQRLANFLRHSSPNFGAIPSSTNVGHNTY-NH2
modifications: disulfide 2-7; N-terminus assumed
SMILES: CC[C@H](C)[C@H](NC(=O)[C@H](C)NC(=O)CNC(=O)[C@H](Cc1ccccc1)NC(=O)[C@H](CC(N)=O)NC(=O)[C@@H]1CCCN1C(=O)[C@H](CO)NC(=O)[C@H](CO)NC(=O)[C@H](Cc1c[nH]cn1)NC(=O)[C@H](CCCNC(=N)N)NC(=O)[C@H](CC(C)C)NC(=O)[C@H](Cc1ccccc1)NC(=O)[C@H](CC(N)=O)NC(=O)[C@H](C)NC(=O)[C@H](CC(C)C)NC(=O)[C@H](CCCNC(=N)N)NC(=O)[C@H](CCC(N)=O)NC(=O)[C@@H](NC(=O)[C@H](C)NC(=O)[C@@H]1CSSC[C@H](NC(=O)[C@@H](N)CCCCNC(=O)CC[C@H](NC(=O)CCCCCCCCCCCCCCCCCCC(=O)O)C(=O)O)C(=O)N[C@@H](CC(N)=O)C(=O)N[C@@H]([C@@H](C)O)C(=O)N[C@@H](C)C(=O)N[C@@H]([C@@H](C)O)C(=O)N1)[C@@H](C)O)C(=O)N1CCC[C@H]1C(=O)N[C@@H](CO)C(=O)N[C@@H](CO)C(=O)N[C@H](C(=O)N[C@@H](CC(N)=O)C(=O)N[C@H](C(=O)NCC(=O)N[C@@H](Cc1c[nH]cn1)C(=O)N[C@@H](CC(N)=O)C(=O)N[C@H](C(=O)N[C@@H](Cc1ccc(O)cc1)C(N)=O)[C@@H](C)O)C(C)C)[C@@H](C)O
notes: also called compound 77
B5: N^ε1-[(4S)-4-carboxy-4-(19-carboxynonadecanoylamino)butanoyl]-[Arg17,Pro21,Pro27,His35]-h-amylin (peptide)
peptide: K([γGlu-C20 diacid])CNTATCATQRLANFLRHSSPNFGAIPSSTNVGSHTY-NH2
modifications: disulfide 2-7; N-terminus assumed
SMILES: CC[C@H](C)[C@H](NC(=O)[C@H](C)NC(=O)CNC(=O)[C@H](Cc1ccccc1)NC(=O)[C@H](CC(N)=O)NC(=O)[C@@H]1CCCN1C(=O)[C@H](CO)NC(=O)[C@H](CO)NC(=O)[C@H](Cc1c[nH]cn1)NC(=O)[C@H](CCCNC(=N)N)NC(=O)[C@H](CC(C)C)NC(=O)[C@H](Cc1ccccc1)NC(=O)[C@H](CC(N)=O)NC(=O)[C@H](C)NC(=O)[C@H](CC(C)C)NC(=O)[C@H](CCCNC(=N)N)NC(=O)[C@H](CCC(N)=O)NC(=O)[C@@H](NC(=O)[C@H](C)NC(=O)[C@@H]1CSSC[C@H](NC(=O)[C@@H](N)CCCCNC(=O)CC[C@H](NC(=O)CCCCCCCCCCCCCCCCCCC(=O)O)C(=O)O)C(=O)N[C@@H](CC(N)=O)C(=O)N[C@@H]([C@@H](C)O)C(=O)N[C@@H](C)C(=O)N[C@@H]([C@@H](C)O)C(=O)N1)[C@@H](C)O)C(=O)N1CCC[C@H]1C(=O)N[C@@H](CO)C(=O)N[C@@H](CO)C(=O)N[C@H](C(=O)N[C@@H](CC(N)=O)C(=O)N[C@H](C(=O)NCC(=O)N[C@@H](CO)C(=O)N[C@@H](Cc1c[nH]cn1)C(=O)N[C@H](C(=O)N[C@@H](Cc1ccc(O)cc1)C(N)=O)[C@@H](C)O)C(C)C)[C@@H](C)O
notes: also called compound 60
B6: N^ε1-[(4S)-4-carboxy-4-(19-carboxynonadecanoylamino)butanoyl]-[His14,Arg17,Pro21,Pro27,Arg34]-h-amylin (peptide)
peptide: K([γGlu-C20 diacid])CNTATCATQRLAHFLRHSSPNFGAIPSSTNVGRNTY-NH2
modifications: disulfide 2-7; N-terminus assumed
SMILES: CC[C@H](C)[C@H](NC(=O)[C@H](C)NC(=O)CNC(=O)[C@H](Cc1ccccc1)NC(=O)[C@H](CC(N)=O)NC(=O)[C@@H]1CCCN1C(=O)[C@H](CO)NC(=O)[C@H](CO)NC(=O)[C@H](Cc1c[nH]cn1)NC(=O)[C@H](CCCNC(=N)N)NC(=O)[C@H](CC(C)C)NC(=O)[C@H](Cc1ccccc1)NC(=O)[C@H](Cc1c[nH]cn1)NC(=O)[C@H](C)NC(=O)[C@H](CC(C)C)NC(=O)[C@H](CCCNC(=N)N)NC(=O)[C@H](CCC(N)=O)NC(=O)[C@@H](NC(=O)[C@H](C)NC(=O)[C@@H]1CSSC[C@H](NC(=O)[C@@H](N)CCCCNC(=O)CC[C@H](NC(=O)CCCCCCCCCCCCCCCCCCC(=O)O)C(=O)O)C(=O)N[C@@H](CC(N)=O)C(=O)N[C@@H]([C@@H](C)O)C(=O)N[C@@H](C)C(=O)N[C@@H]([C@@H](C)O)C(=O)N1)[C@@H](C)O)C(=O)N1CCC[C@H]1C(=O)N[C@@H](CO)C(=O)N[C@@H](CO)C(=O)N[C@H](C(=O)N[C@@H](CC(N)=O)C(=O)N[C@H](C(=O)NCC(=O)N[C@@H](CCCNC(=N)N)C(=O)N[C@@H](CC(N)=O)C(=O)N[C@H](C(=O)N[C@@H](Cc1ccc(O)cc1)C(N)=O)[C@@H](C)O)C(C)C)[C@@H](C)O
notes: also called compound 85

target: T1, human calcitonin receptor; experiment: cell-based or functional assay

Row | hCTR funct. EC50 [nM] | Binder
1 | 9.33 | B1
2 | 16.8 | B2
3 | 3.94 | B3
4 | 5.4 | B4
5 | 5.36 | B5
6 | 3.88 | B6
